The values that follow come from article PMC2563962 (Structure (London, England : 1993), 2008).

The series concerns the molecule itself. Nature of the series: SEC. In general terms: Size exclusion chromatography separates by hydrodynamic size, large species first.

B1: SusD (residues 26-551) of Bacteroides thetaiotaomicron (domain or fragment, Bacteroides thetaiotaomicron ATCC 29148, UniProt Q8A1G2 26-551, looked up)
chain: INDLDISPIDPQTGGSFDQQGVFVKGYAMLGVTGQKGIDGSPDLDGQDEGESGFYRTTFNCNELPTDECLWAWQENQDIPQLTSISWSPSSQRTEWVYVRLGYDITQYNFFLDQTEGMTDAETLRQRAEIRFLRALHYWYFLDLFGKAPFKEHFSNDLPVEKKGTELYTYIQNELNEIEADMYEPRQAPFGRADKAANWLLRARLYLNAGVYTGQTDYAKAEEYASKVIGSAYKLCTNYSELFMADNDENENAMQEIILPIRQDGVKTRNYGGSTYLVCGTRVAGMPRMGTTNGWSCIFARAAMVQKFFSNLEDVPMLPADVEIPTKGLDTDEQIDAFDAEHGIRTEDMIKAAGDDRALLYSGVGGGRRKIQTDAISGFTDGLSIVKWQNYRSDGKPVSHATYPDTDIPLFRLAEAYLTRAEAIFRQGGDATGDINELRKRANCTRKVQTVTEQELIDEWAREFYLEGRRRSDLVRFGMFTTNKYLWDWKGGAMNGTSVASYYNKYPIPVSDINNNRNMSQNEGYK
For orientation: stoichiometry N means the number of molecules, sites or subunits per partner or assembly. Turning to B1, the “stoichiometry N” value was 2.
